# B1: DLC1 (parent)
# chain: HVTHWMGQPFNSDDRNTACHHGLV
# Variants of: B1
# Assay: protein stability index of a GFP-peptide fusion (GPS, HEK-293T) (PSI 1-6); higher = more stable
# Details: c terminus: a fixed tail appended
# 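Further: lentivirally expressed fusions sorted by FACS into six bins by GFP to DsRed ratio, PSI derived from sequencing read proportions per bin multiplied by bin number.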
row,Variant,protein stability index
1,HVTHWMGQPFNSDDRNTACHHGLK [V24K],2.6
2,HVTHWMGQPFNSDDRNTACHHGLE [V24E],2.5
3,HVTHWMGQPFNSDDRNTACHHGLQ [V24Q],2.19
4,HVTHWMGQPFNSDDRNTACHHGLF [V24F],1.45
5,HVTHWMGQPFNSDDRNTACHHGLL [V24L],2.35
6,HVYHWMGQPFNSDDRNTACHHGLV [T3Y],1.91
7,HVNHWMGQPFNSDDRNTACHHGLV [T3N],1.99
8,HVTHWIGQPFNSDDRNTACHHGLV [M6I],2.12
9,HVTHWCGQPFNSDDRNTACHHGLV [M6C],2.86
10,HVTHWLGQPFNSDDRNTACHHGLV [M6L],1.93
11,HVTHWNGQPFNSDDRNTACHHGLV [M6N],2.92
12,HVTHWPGQPFNSDDRNTACHHGLV [M6P],2.44
13,HVTHWHGQPFNSDDRNTACHHGLV [M6H],2.34
14,HVTHWGGQPFNSDDRNTACHHGLV [M6G],2.16
15,HVTHWMGTPFNSDDRNTACHHGLV [Q8T],2.6
16,HVTHWMGEPFNSDDRNTACHHGLV [Q8E],2.43
17,HVTHWMGCPFNSDDRNTACHHGLV [Q8C],2.14
18,HVTHWMGQPFNSDDMNTACHHGLV [R15M],1.83
19,HVTHWMGQPFNSDDVNTACHHGLV [R15V],2.11
20,HVTHWMGQPFNSDDSNTACHHGLV [R15S],2.4
21,HVTHWMGQPFNSDDANTACHHGLV [R15A],2.22
22,HVTHWMGQPFNSDDDNTACHHGLV [R15D],2.23
23,HVTHWMGQPFNSDDHNTACHHGLV [R15H],2.06
24,HVTHWMGQPFNSDDPNTACHHGLV [R15P],1.82

row,Variant,protein stability index
1,HVTHWMGQPFNSDDFNTACHHGLV [R15F],2.25
2,HVTKWMGQPFNSDDRNTACHHGLV [H4K],2.18
3,HVTRWMGQPFNSDDRNTACHHGLV [H4R],1.97
4,HVTNWMGQPFNSDDRNTACHHGLV [H4N],2.11
5,HVTDWMGQPFNSDDRNTACHHGLV [H4D],2.49
6,HVTSWMGQPFNSDDRNTACHHGLV [H4S],2.64
7,HVTQWMGQPFNSDDRNTACHHGLV [H4Q],1.78
8,HVTAWMGQPFNSDDRNTACHHGLV [H4A],1.47
9,HVTHWMGQPFNSDDRNTACYHGLV [H20Y],2.16
10,HVTHWMGQPFNSDDRNTACWHGLV [H20W],2.46
11,HVTHWMGQPFNSDDRNTACIHGLV [H20I],2.13
12,HVTHWMGQPFNSDDRNTACSHGLV [H20S],2.25
13,HVTHWMGQPFNSDDRNTACMHGLV [H20M],1.79
14,HVTHWMGQPFNSCDRNTACHHGLV [D13C],1.8
15,HVTHWMGQPFNSADRNTACHHGLV [D13A],1.48
16,HVTHWMGQPFNSEDRNTACHHGLV [D13E],2.07
17,HVTHWMGQPFNSVDRNTACHHGLV [D13V],1.37
18,HVTHWMCQPFNSDDRNTACHHGLV [G7C],2.02
19,HVTHWMKQPFNSDDRNTACHHGLV [G7K],1.89
20,HVTHWMRQPFNSDDRNTACHHGLV [G7R],1.76
21,HVTHWMGQPFNSDDRNEACHHGLV [T17E],2.32
22,HVTHWMGQPFNSDDRNLACHHGLV [T17L],1.68
23,HVTHWMGQPFNSDDRNHACHHGLV [T17H],2.23
24,HVTHWMGQQFNSDDRNTACHHGLV [P9Q],2.4

row,Variant,protein stability index
1,HVTHWMGQVFNSDDRNTACHHGLV [P9V],1.55
2,HVTHWMGQSFNSDDRNTACHHGLV [P9S],2.06
3,HVTHWMGQFFNSDDRNTACHHGLV [P9F],1.43
4,HVTHWMGQPFNSDDRCTACHHGLV [N16C],2.54
5,HVTHWMGQPFNSDDRLTACHHGLV [N16L],1.8
6,HVTHWMGQPFNSDDRYTACHHGLV [N16Y],2.32
7,HVTHWMGQPFNSDDRATACHHGLV [N16A],1.75
8,HVTHWMGQPFNSDDRDTACHHGLV [N16D],2.35
9,HVTHWMGQPFNSDDRSTACHHGLV [N16S],1.81
10,HVTHWMGQPFNSDDRMTACHHGLV [N16M],1.76
11,HVTHWMGQPFNSDDRHTACHHGLV [N16H],2.43
12,HVTHWMGQPFNSDDRKTACHHGLV [N16K],1.98
13,HVTHWMGQPFNSDDRNTHCHHGLV [A18H],2.25
14,HVTHWMGQPFNSDDRNTPCHHGLV [A18P],1.94
15,HVTHWMGQPFNSDDRNTLCHHGLV [A18L],1.56
16,HVTHWMGQPFNSDDRNTTCHHGLV [A18T],2.09
17,HVTHWMGQPFNMDDRNTACHHGLV [S12M],2.61
18,HVTHWMGQPFNFDDRNTACHHGLV [S12F],1.85
19,HVTHWMGQPFNADDRNTACHHGLV [S12A],2.02
20,HVTHWMGQPFNIDDRNTACHHGLV [S12I],2.05
21,DVTHWMGQPFNSDDRNTACHHGLV [H1D],2.68
22,FVTHWMGQPFNSDDRNTACHHGLV [H1F],1.89
23,HDTHWMGQPFNSDDRNTACHHGLV [V2D],3.76
24,HWTHWMGQPFNSDDRNTACHHGLV [V2W],1.98

row,Variant,protein stability index
1,HGTHWMGQPFNSDDRNTACHHGLV [V2G],3.3
2,HVTHWMGQPFNSDDRNTACHHGCV [L23C],1.99
3,HVTHWMGQPFNSDDRNTACHHGVV [L23V],2.39
4,HVTHWMGQPFNSDDRNTACHHGEV [L23E],2.75
5,HVTHWMGQPFNSDDRNTACHHGPV [L23P],2.17
6,HVTHWMGQPFNSDDRNTACHHGFV [L23F],2.02
7,HVTHWMGQPTNSDDRNTACHHGLV [F10T],2.29
8,HVTHWMGQPINSDDRNTACHHGLV [F10I],2.04
9,HVTHWMGQPWNSDDRNTACHHGLV [F10W],1.93
10,HVTHWMGQPKNSDDRNTACHHGLV [F10K],2.78
11,HVTHWMGQPYNSDDRNTACHHGLV [F10Y],1.92
12,HVTHWMGQPQNSDDRNTACHHGLV [F10Q],2.5
13,HVTHWMGQPFNSDDRNTAFHHGLV [C19F],1.25
14,HVTHWMGQPFNSDDRNTAYHHGLV [C19Y],1.8
15,HVTHWMGQPFNSDDRNTAGHHGLV [C19G],1.96
16,HVTHWMGQPFNSDDRNTAVHHGLV [C19V],2.04
17,HVTHWMGQPFNSDDRNTAEHHGLV [C19E],2.92
18,HVTHWMGQPFNSDDRNTACHNGLV [H21N],2.66
19,HVTHWMGQPFNSDDRNTACHQGLV [H21Q],2.44
20,HVTHWMGQPFNSDDRNTACHSGLV [H21S],2.23
21,HVTHWMGQPFNSDDRNTACHTGLV [H21T],2.02
22,HVTHWMGQPFNSDDRNTACHPGLV [H21P],1.95
